Reference: the MegaScale stability set (Tsuboyama et al. 2023)

B1: EHEE_rd3_0053 (parent)
chain: TYTFKVDNKDQAKKAAKWAKKLGLSFQIEKHGDTFKITVQ

Variants of: B1
Experiment: folding stability dG (cDNA display proteolysis); higher = more stable
Conditions: PBS, room temperature

Point of comparison: TYTFFVDNKDQAKKAAKWAKKLGLSFQIEKHGDTFKITVQ, “folding stability dG” value 3.77 kcal/mol. Against it:
- LYTFKVDNKDQAKKAAKWAKKLGLSFQIEKHGDTFKITVQ — lower, 2.21 kcal/mol
- FYTFKVDNKDQAKKAAKWAKKLGLSFQIEKHGDTFKITVQ — lower, 2.42 kcal/mol
- TYTFKVDNKDQAKKAAKQAKKLGLSFQIEKHGDTFKITVQ — lower, 1.17 kcal/mol
- TYTFKVDNKDQAKKAAKSAKKLGLSFQIEKHGDTFKITVQ — lower, 0.747 kcal/mol
- TYTFKVDNKDQAKKAAKYAKKLGLSFQIEKHGDTFKITVQ — lower, 1.61 kcal/mol
- TYTFKVDNKDQAKKAAKAAKKLGLSFQIEKHGDTFKITVQ — lower, 1.21 kcal/mol
- TYTFKVDNKDQAKKAAKWAKKLGLSFQIEKHGPTFKITVQ — lower, 2.12 kcal/mol
- TYTFKVDNKDQAKKAAKWAKKLGLSFQIEKHGKTFKITVQ — lower, 2.35 kcal/mol
- TYTFKVDNKDQAKKAAKWAKKLGLSFQIEKHGRTFKITVQ — lower, 2.11 kcal/mol
- TYTFKVDNKDQAKKAAKWAKKLGLSPQIEKHGDTFKITVQ — lower, 0.848 kcal/mol
- TTTFKVDNKDQAKKAAKWAKKLGLSFQIEKHGDTFKITVQ — lower, 1.42 kcal/mol
- TSTFKVDNKDQAKKAAKWAKKLGLSFQIEKHGDTFKITVQ — lower, 1.18 kcal/mol
- TCTFKVDNKDQAKKAAKWAKKLGLSFQIEKHGDTFKITVQ — lower, 3.58 kcal/mol
- TMTFKVDNKDQAKKAAKWAKKLGLSFQIEKHGDTFKITVQ — lower, 2.08 kcal/mol
- TYTFKVDNNDQAKKAAKWAKKLGLSFQIEKHGDTFKITVQ — lower, 1.9 kcal/mol
- TYTFKVDNPDQAKKAAKWAKKLGLSFQIEKHGDTFKITVQ — lower, 2.31 kcal/mol
- TYTFKVDNTDQAKKAAKWAKKLGLSFQIEKHGDTFKITVQ — lower, 2.02 kcal/mol
- TYTFKVDNYDQAKKAAKWAKKLGLSFQIEKHGDTFKITVQ — lower, 2.86 kcal/mol
- TYTFKVDNKDQAKKAAKWAKKLGLSFQIEKHGDTFKITVA — lower, 2.46 kcal/mol
- TYTFKVDNKDQAKKAAKWAKKLGLSFQIEKHGDTFKITVP — lower, 1.14 kcal/mol
- TYTFKVDNKDQAKKGAKWAKKLGLSFQIEKHGDTFKITVQ — lower, 0.564 kcal/mol
- TYTFKVDNKDQAKKMAKWAKKLGLSFQIEKHGDTFKITVQ — lower, 2.5 kcal/mol
- TYTFKVDNKDQAKKAAKWAKKLGLSFQIVKHGDTFKITVQ — lower, 2.43 kcal/mol
- TYTFKVDNKDQAKKAAKWAKKLGLSFQINKHGDTFKITVQ — lower, 1.77 kcal/mol
- TYTFKVDNKDQAKKAAKWAKKLGLSFQISKHGDTFKITVQ — lower, 2.27 kcal/mol
- TYTFKVDNKDQAGKAAKWAKKLGLSFQIEKHGDTFKITVQ — lower, 1.72 kcal/mol
- TYTFKVDNKDQAVKAAKWAKKLGLSFQIEKHGDTFKITVQ — lower, 2.3 kcal/mol
- TYTFKVDNKDQARKAAKWAKKLGLSFQIEKHGDTFKITVQ — lower, 2.66 kcal/mol
- TYTFKVDNKDQAIKAAKWAKKLGLSFQIEKHGDTFKITVQ — lower, 2.49 kcal/mol
- TYTFKVDNKDQAKKAAKWAKKLGLSFQIEKHGDTFKITYQ — lower, 1.68 kcal/mol
- TYTFKVDNKDQAKKAAKWAKKLGLSFQIEKHGDTFKITFQ — lower, 2.06 kcal/mol
- TYTFKVDNKDQAKKAAKWAKKLGLSFQIEKHGDTFKITAQ — lower, 0.718 kcal/mol
- TYTFKVDNKDQAKKAAKWAKKLGLSFQAEKHGDTFKITVQ — lower, 1.42 kcal/mol
- TYTFKVDNKDQAKKAAKWAKKLGLSFQWEKHGDTFKITVQ — lower, 1.53 kcal/mol
- TYTFKVDNKDQAKKAAKWAKKLGLSFQIEKHGDTFKWTVQ — lower, 0.115 kcal/mol
- TYTFKVDNKDQAKKAAKWAKKLGLMFQIEKHGDTFKITVQ — lower, 2.29 kcal/mol
- TYTFKVDNKDQAKKAAKWAKTLGLSFQIEKHGDTFKITVQ — lower, 2.16 kcal/mol
- TYTFKVDNKDQAKKAAKWAKGLGLSFQIEKHGDTFKITVQ — lower, 2.12 kcal/mol
- TYTFKVDNKDQAKKAAKWAKILGLSFQIEKHGDTFKITVQ — lower, 1.99 kcal/mol
- TYTFKVDNKDQAKKAAKWAKNLGLSFQIEKHGDTFKITVQ — lower, 2.17 kcal/mol
- TYTFKVDNKDQAKKAFKWAKKLGLSFQIEKHGDTFKITVQ — lower, 2.28 kcal/mol
- TYTFKVDNKDQAKKAGKWAKKLGLSFQIEKHGDTFKITVQ — lower, 1.84 kcal/mol
- TYTFKVDNKDQAKKASKWAKKLGLSFQIEKHGDTFKITVQ — lower, 1.87 kcal/mol
- TYTFKVDNKDQAKKADKWAKKLGLSFQIEKHGDTFKITVQ — lower, 0.642 kcal/mol
- TYTFKVDNKDQAKKAAKWAKKLGLSFQIEKHGDTFKIIVQ — lower, 2.34 kcal/mol
- TYTFKVDNKDQAKKAAKWAKKLGLSFQIEKHGDTFKIKVQ — lower, 1.65 kcal/mol
- TYTFKVDNKDQAKKAAKWAKKLGLSFQIEKHGDTFKIVVQ — lower, 2.01 kcal/mol
- TYTFKVDNKDQAKKAAKWAKKLGLSFQIEKHGDTFKINVQ — lower, 1.09 kcal/mol
- TYTFKVDNKDQPKKAAKWAKKLGLSFQIEKHGDTFKITVQ — lower, -0.057 kcal/mol
- TYTFKVDNKDQTKKAAKWAKKLGLSFQIEKHGDTFKITVQ — lower, 1.06 kcal/mol
- TYTFKVDNKDQKKKAAKWAKKLGLSFQIEKHGDTFKITVQ — lower, 1.26 kcal/mol
- TYTFKVDNKDQRKKAAKWAKKLGLSFQIEKHGDTFKITVQ — lower, 1.29 kcal/mol
- TYTFKVDNKDQVKKAAKWAKKLGLSFQIEKHGDTFKITVQ — lower, 2.33 kcal/mol
- TYTDKVDNKDQAKKAAKWAKKLGLSFQIEKHGDTFKITVQ — lower, -0.075 kcal/mol
- TYTNKVDNKDQAKKAAKWAKKLGLSFQIEKHGDTFKITVQ — lower, -0.163 kcal/mol
- TYTKKVDNKDQAKKAAKWAKKLGLSFQIEKHGDTFKITVQ — lower, 0.404 kcal/mol
- TYTRKVDNKDQAKKAAKWAKKLGLSFQIEKHGDTFKITVQ — lower, 0.333 kcal/mol
- TYTFKVDNKDQAKKAAKWAKKLGLSFQIELHGDTFKITVQ — lower, 1.98 kcal/mol
- TYTFKVDNKDQAKKAAKWAVKLGLSFQIEKHGDTFKITVQ — lower, 1.98 kcal/mol
- TYTFKVDNKDQAKKAAKWASKLGLSFQIEKHGDTFKITVQ — lower, 2.08 kcal/mol
- TYTFKVDNKDQAKKAAKWAKKLGLSFQIEKHGDTNKITVQ — lower, -0.413 kcal/mol
- TYTFKVDNKDQAKKAAKWAKKLGLSFQIEKHGDTSKITVQ — lower, -0.159 kcal/mol
- TYTFKVDNKDAAKKAAKWAKKLGLSFQIEKHGDTFKITVQ — lower, 2.65 kcal/mol
- TYTFKVDNKDLAKKAAKWAKKLGLSFQIEKHGDTFKITVQ — lower, 2.33 kcal/mol
- TYTFKVDNKDNAKKAAKWAKKLGLSFQIEKHGDTFKITVQ — lower, 1.72 kcal/mol
- TYTFKVDNKDVAKKAAKWAKKLGLSFQIEKHGDTFKITVQ — lower, 1.95 kcal/mol
- TYTFKVDNKDKAKKAAKWAKKLGLSFQIEKHGDTFKITVQ — lower, 2.38 kcal/mol
- TYTFKVDNKDQAKKAAKWAKKLGLSFQIEKGGDTFKITVQ — lower, 1.34 kcal/mol
- TYTFKVDNKDQAKKAAKWAKKLGLSFQIEKVGDTFKITVQ — lower, 2.87 kcal/mol
- TYTFKVDNKDQAKKAAKWAKKLGLSFQIEKLGDTFKITVQ — lower, 2.59 kcal/mol
- TYTFKVDNKCQAKKAAKWAKKLGLSFQIEKHGDTFKITVQ — lower, 2.72 kcal/mol
- TYTFKVDNKYQAKKAAKWAKKLGLSFQIEKHGDTFKITVQ — lower, 3.04 kcal/mol
- TYTFKVDNKQQAKKAAKWAKKLGLSFQIEKHGDTFKITVQ — lower, 2.68 kcal/mol
- TYTFKVDNKDQAKKAALWAKKLGLSFQIEKHGDTFKITVQ — lower, 2.5 kcal/mol
- TYTFKVDNKDQAKKAACWAKKLGLSFQIEKHGDTFKITVQ — lower, 2.6 kcal/mol
- TYTFKVDNKDQAKKAAAWAKKLGLSFQIEKHGDTFKITVQ — lower, 2.61 kcal/mol
- TYTFKVDNKDQAKKAAKWAKKLHLSFQIEKHGDTFKITVQ — lower, 1.79 kcal/mol
- TYTFKVDNKDQAKKAAKWAKKLALSFQIEKHGDTFKITVQ — lower, 1.23 kcal/mol
- TYTFKVDNKDQAKKAAKWAKKLYLSFQIEKHGDTFKITVQ — lower, 1.1 kcal/mol
- TYTFKVDNKDQAKKAAKWAKKLSLSFQIEKHGDTFKITVQ — lower, 1.42 kcal/mol
- TYTFKVDEKDQAKKAAKWAKKLGLSFQIEKHGDTFKITVQ — lower, 1.16 kcal/mol
- TYTFKVDRKDQAKKAAKWAKKLGLSFQIEKHGDTFKITVQ — lower, 1.86 kcal/mol
- TYTFKVDQKDQAKKAAKWAKKLGLSFQIEKHGDTFKITVQ — lower, 1.47 kcal/mol
- TYTFKVDNKDQAKKAAKWAKKTGLSFQIEKHGDTFKITVQ — lower, 1.41 kcal/mol
- TYTFKVDNKDQAKKAAKWAKKCGLSFQIEKHGDTFKITVQ — lower, 3.29 kcal/mol
- TYTFKVDNKDQAKKAAKWAKKVGLSFQIEKHGDTFKITVQ — lower, 1.78 kcal/mol
- TYTFKVDNKDQAKKAAKWAKKAGLSFQIEKHGDTFKITVQ — lower, 2.08 kcal/mol
- TYTFKVDNKDQAKVAAKWAKKLGLSFQIEKHGDTFKITVQ — lower, 2.08 kcal/mol
- TYTFKVDNKDQAKDAAKWAKKLGLSFQIEKHGDTFKITVQ — lower, 1.56 kcal/mol
- TYTFKVDNKDQAKHAAKWAKKLGLSFQIEKHGDTFKITVQ — lower, 2.06 kcal/mol
- TYTFKVDNKDQAKKAAKWAKKLGLSFKIEKHGDTFKITVQ — lower, 2.64 kcal/mol
- TYTFKVDNKDQAKKAAKWAKKLGLSFWIEKHGDTFKITVQ — lower, 2.62 kcal/mol
- TYTFKVDNKDQAKKAAKWAKKLGLSFQIEKHGDDFKITVQ — lower, 1.89 kcal/mol
- TYTFKVDNKDQAKKAAKWAKKLGLSFQIEKHGDYFKITVQ — lower, 2.92 kcal/mol
- TYTFDVDNKDQAKKAAKWAKKLGLSFQIEKHGDTFKITVQ — lower, 2.34 kcal/mol
- TYTFSVDNKDQAKKAAKWAKKLGLSFQIEKHGDTFKITVQ — lower, 2.96 kcal/mol
- TYTFWVDNKDQAKKAAKWAKKLGLSFQIEKHGDTFKITVQ — the same, 3.77 kcal/mol
- TYTFQVDNKDQAKKAAKWAKKLGLSFQIEKHGDTFKITVQ — lower, 2.9 kcal/mol
- TYTFKVDNKDQAKKAAKWAKKLGYSFQIEKHGDTFKITVQ — lower, 2.33 kcal/mol
- TYTFKVDNKDQAKKAAKWAKKLGISFQIEKHGDTFKITVQ — lower, 1.73 kcal/mol
- TYTFKVDNKDQAKKAAKWAKKLGWSFQIEKHGDTFKITVQ — lower, 2.04 kcal/mol
- TYTFKVDNKDQAKKAAKWAKKLGHSFQIEKHGDTFKITVQ — lower, 1.31 kcal/mol
- TYTFKVDNKDQAKKAAKWAKKLGNSFQIEKHGDTFKITVQ — lower, 0.22 kcal/mol
- TYCFKVDNKDQAKKAAKWAKKLGLSFQIEKHGDTFKITVQ — lower, 2.98 kcal/mol
- TYQFKVDNKDQAKKAAKWAKKLGLSFQIEKHGDTFKITVQ — lower, 1.95 kcal/mol
- TYLFKVDNKDQAKKAAKWAKKLGLSFQIEKHGDTFKITVQ — lower, 1.39 kcal/mol
- TYNFKVDNKDQAKKAAKWAKKLGLSFQIEKHGDTFKITVQ — lower, 1.43 kcal/mol
- TYVFKVDNKDQAKKAAKWAKKLGLSFQIEKHGDTFKITVQ — lower, 2.49 kcal/mol
- TYDFKVDNKDQAKKAAKWAKKLGLSFQIEKHGDTFKITVQ — lower, 1.34 kcal/mol
- TYGFKVDNKDQAKKAAKWAKKLGLSFQIEKHGDTFKITVQ — lower, 0.986 kcal/mol
- TYTFKVDNKDQAKKAAKWAKKLGLSFQIEKHGDTFQITVQ — lower, 2.66 kcal/mol
- TYTFKVDNKDQAKKAAKWAKKLGLSFQIEKHGDTFYITVQ — lower, 3.17 kcal/mol
- TYTFKVDNKDQAKKAAKWAKKLGLSFQIEKHGDTFTITVQ — lower, 2.88 kcal/mol
- TYTFKRDNKDQAKKAAKWAKKLGLSFQIEKHGDTFKITVQ — lower, 0.551 kcal/mol
- TYTFKSDNKDQAKKAAKWAKKLGLSFQIEKHGDTFKITVQ — lower, 1.03 kcal/mol
- TYTFKVDNKDQAKKAAKWYKKLGLSFQIEKHGDTFKITVQ — lower, 2.32 kcal/mol
- TYTFKVDNKDQAKKAAKWAKKLGLSFQIEKHADTFKITVQ — lower, 1.64 kcal/mol
- TYTFKVDNKDQAKKAAKWAKKLGLSFQIEKHIDTFKITVQ — lower, 1.21 kcal/mol
- TYTFKVDNKDQAKKAAKWAKKLGLSFQIEKHCDTFKITVQ — lower, 1.78 kcal/mol
- TYTFKVDNKDQAKKAAKWAKKLGLSFQIEKHDDTFKITVQ — lower, 1.85 kcal/mol
- TYTFKVWNKDQAKKAAKWAKKLGLSFQIEKHGDTFKITVQ — lower, 2.66 kcal/mol
- TYTFKVQNKDQAKKAAKWAKKLGLSFQIEKHGDTFKITVQ — lower, 2.61 kcal/mol
- TYTFKVSNKDQAKKAAKWAKKLGLSFQIEKHGDTFKITVQ — lower, 2.66 kcal/mol
- TYTFKVNNKDQAKKAAKWAKKLGLSFQIEKHGDTFKITVQ — lower, 2.62 kcal/mol
